From ChEMBL document CHEMBL2073850, “Human organic anion transporters and human organic cation transporters mediate renal transport of prostaglandins” (J Pharmacol Exp Ther, 2002) come the findings set out here.

Substrate in data set [1]: CCCCC[C@H](O)/C=C/[C@@H]1[C@@H](C/C=C\CCCC(=O)O)[C@@H](O)C[C@H]1O
The experiment in a line: (§1) TP_TRANSPORTER: uptake in OAT4-expressing S2 cells. It counts as functional, cell-based.

Substrate in data set [2]: CCCCC[C@H](O)/C=C/[C@H]1[C@H](O)CC(=O)[C@@H]1C/C=C\CCCC(=O)O
The description is as §1. It counts as functional, cell-based.

Substrate in data set [3]: CCCCC[C@H](O)/C=C/[C@@H]1[C@@H](C/C=C\CCCC(=O)O)[C@@H](O)C[C@H]1O
In words: (§2) TP_TRANSPORTER: uptake in OAT3-expressing S2 cells. Type of data set: functional, cell-based.

Substrate in data set [4]: CCCCC[C@H](O)/C=C/[C@H]1[C@H](O)CC(=O)[C@@H]1C/C=C\CCCC(=O)O
The data set is described as §2. It counts as functional, cell-based.

Substrate in data set [5]: CCCCC[C@H](O)/C=C/[C@@H]1[C@@H](C/C=C\CCCC(=O)O)[C@@H](O)C[C@H]1O
In words: (§3) TP_TRANSPORTER: uptake in OCT1-expressing S2 cells. Type of data set: functional, cell-based.

Substrate in data set [6]: CCCCC[C@H](O)/C=C/[C@H]1[C@H](O)CC(=O)[C@@H]1C/C=C\CCCC(=O)O
The data set is described as §3. Type of data set: functional, cell-based.

Substrate in data set [7]: CCCCC[C@H](O)/C=C/[C@@H]1[C@@H](C/C=C\CCCC(=O)O)[C@@H](O)C[C@H]1O
The experiment in a line: (§4) TP_TRANSPORTER: uptake in OCT2-expressing S2 cells. Type of data set: functional, cell-based.

Substrate in data set [8]: CCCCC[C@H](O)/C=C/[C@H]1[C@H](O)CC(=O)[C@@H]1C/C=C\CCCC(=O)O
The description is as §4. Type of data set: functional, cell-based.

Substrate in data set [9]: CCCCC[C@H](O)/C=C/[C@@H]1[C@@H](C/C=C\CCCC(=O)O)[C@@H](O)C[C@H]1O
The experiment in a line: TP_TRANSPORTER: uptake in OAT1-expressing S2 cells. Type of data set: functional, cell-based.

Substrate in data set [10]: CCCCC[C@H](O)/C=C/[C@H]1[C@H](O)CC(=O)[C@@H]1C/C=C\CCCC(=O)O
The experiment in a line: cells, lysate or membranes named.

Substrate in data set [11]: CCCCC[C@H](O)/C=C/[C@@H]1[C@@H](C/C=C\CCCC(=O)O)[C@@H](O)C[C@H]1O
The experiment in a line: (§5) TP_TRANSPORTER: uptake in OAT2-expressing S2 cells. Type of data set: functional, cell-based.

Substrate in data set [12]: CCCCC[C@H](O)/C=C/[C@H]1[C@H](O)CC(=O)[C@@H]1C/C=C\CCCC(=O)O
The data set is described as §5. It counts as functional, cell-based.

Usually Km stands for the substrate concentration at which the rate is half of its maximum.

B1: Solute carrier family 22 member 11 (Homo sapiens) (protein)
chain: MAFSKLLEQAGGVGLFQTLQVLTFILPCLMIPSQMLLENFSAAIPGHRCWTHMLDNGSAVSTNMTPKALLTISIPPGPNQGPHQCRRFRQPQWQLLDPNATATSWSEADTEPCVDGWVYDRSVFTSTIVAKWDLVCSSQGLKPLSQSIFMSGILVGSFIWGLLSYRFGRKPMLSWCCLQLAVAGTSTIFAPTFVIYCGLRFVAAFGMAGIFLSSLTLMVEWTTTSRRAVTMTVVGCAFSAGQAALGGLAFALRDWRTLQLAASVPFFAISLISWWLPESARWLIIKGKPDQALQELRKVARINGHKEAKNLTIEVLMSSVKEEVASAKEPRSVLDLFCVPVLRWRSCAMLVVNFSLLISYYGLVFDLQSLGRDIFLLQALFGAVDFLGRATTALLLSFLGRRTIQAGSQAMAGLAILANMLVPQDLQTLRVVFAVLGKGCFGISLTCLTIYKAELFPTPVRMTADGILHTVGRLGAMMGPLILMSRQALPLLPPLLYGVISIASSLVVLFFLPETQGLPLPDTIQDLESQKSTAAQGNRQEAVTVESTSL
Turning to B1, the Michaelis constant (Km) in [1] worked out at 0.692 µM; in [2], 0.154 µM.

B2: Organic anion transporter 3 (Homo sapiens) (protein)
chain: MTFSEILDRVGSMGHFQFLHVAILGLPILNMANHNLLQIFTAATPVHHCRPPHNASTGPWVLPMGPNGKPERCLRFVHPPNASLPNDTQRAMEPCLDGWVYNSTKDSIVTEWDLVCNSNKLKEMAQSIFMAGILIGGLVLGDLSDRFGRRPILTCSYLLLAASGSGAAFSPTFPIYMVFRFLCGFGISGITLSTVILNVEWVPTRMRAIMSTALGYCYTFGQFILPGLAYAIPQWRWLQLTVSIPFFVFFLSSWWTPESIRWLVLSGKSSKALKILRRVAVFNGKKEEGERLSLEELKLNLQKEISLAKAKYTASDLFRIPMLRRMTFCLSLAWFATGFAYYSLAMGVEEFGVNLYILQIIFGGVDVPAKFITILSLSYLGRHTTQAAALLLAGGAILALTFVPLDLQTVRTVLAVFGKGCLSSSFSCLFLYTSELYPTVIRQTGMGVSNLWTRVGSMVSPLVKITGEVQPFIPNIIYGITALLGGSAALFLPETLNQPLPETIEDLENWSLRAKKPKQEPEVEKASQRIPLQPHGPGLGSS
Turning to B2, the Km in data set [3] amounted to 1.09 µM; in data set [4] it was 0.345 µM.

B3: Solute carrier family 22 member 1 (Homo sapiens) (protein)
chain: MPTVDDILEQVGESGWFQKQAFLILCLLSAAFAPICVGIVFLGFTPDHHCQSPGVAELSQRCGWSPAEELNYTVPGLGPAGEAFLGQCRRYEVDWNQSALSCVDPLASLATNRSHLPLGPCQDGWVYDTPGSSIVTEFNLVCADSWKLDLFQSCLNAGFLFGSLGVGYFADRFGRKLCLLGTVLVNAVSGVLMAFSPNYMSMLLFRLLQGLVSKGNWMAGYTLITEFVGSGSRRTVAIMYQMAFTVGLVALTGLAYALPHWRWLQLAVSLPTFLFLLYYWCVPESPRWLLSQKRNTEAIKIMDHIAQKNGKLPPADLKMLSLEEDVTEKLSPSFADLFRTPRLRKRTFILMYLWFTDSVLYQGLILHMGATSGNLYLDFLYSALVEIPGAFIALITIDRVGRIYPMAMSNLLAGAACLVMIFISPDLHWLNIIIMCVGRMGITIAIQMICLVNAELYPTFVRNLGVMVCSSLCDIGGIITPFIVFRLREVWQALPLILFAVLGLLAAGVTLLLPETKGVALPETMKDAENLGRKAKPKENTIYLKVQTSEPSGT
For B3, the results for the Michaelis constant (Km) in data set [5] and in data set [6] were 0.477 µM and 0.657 µM, respectively.

B4: Solute carrier family 22 member 2 (Homo sapiens) (protein)
chain: MPTTVDDVLEHGGEFHFFQKQMFFLLALLSATFAPIYVGIVFLGFTPDHRCRSPGVAELSLRCGWSPAEELNYTVPGPGPAGEASPRQCRRYEVDWNQSTFDCVDPLASLDTNRSRLPLGPCRDGWVYETPGSSIVTEFNLVCANSWMLDLFQSSVNVGFFIGSMSIGYIADRFGRKLCLLTTVLINAAAGVLMAISPTYTWMLIFRLIQGLVSKAGWLIGYILITEFVGRRYRRTVGIFYQVAYTVGLLVLAGVAYALPHWRWLQFTVSLPNFFFLLYYWCIPESPRWLISQNKNAEAMRIIKHIAKKNGKSLPASLQRLRLEEETGKKLNPSFLDLVRTPQIRKHTMILMYNWFTSSVLYQGLIMHMGLAGDNIYLDFFYSALVEFPAAFMIILTIDRIGRRYPWAASNMVAGAACLASVFIPGDLQWLKIIISCLGRMGITMAYEIVCLVNAELYPTFIRNLGVHICSSMCDIGGIITPFLVYRLTNIWLELPLMVFGVLGLVAGGLVLLLPETKGKALPETIEEAENMQRPRKNKEKMIYLQVQKLDIPLN
As to B4, the Km was 0.334 µM in data set [7] and 0.0289 µM in data set [8].

B5: Solute carrier family 22 member 6 (Homo sapiens) (protein)
chain: MAFNDLLQQVGGVGRFQQIQVTLVVLPLLLMASHNTLQNFTAAIPTHHCRPPADANLSKNGGLEVWLPRDRQGQPESCLRFTSPQWGLPFLNGTEANGTGATEPCTDGWIYDNSTFPSTIVTEWDLVCSHRALRQLAQSLYMVGVLLGAMVFGYLADRLGRRKVLILNYLQTAVSGTCAAFAPNFPIYCAFRLLSGMALAGISLNCMTLNVEWMPIHTRACVGTLIGYVYSLGQFLLAGVAYAVPHWRHLQLLVSAPFFAFFIYSWFFIESARWHSSSGRLDLTLRALQRVARINGKREEGAKLSMEVLRASLQKELTMGKGQASAMELLRCPTLRHLFLCLSMLWFATSFAYYGLVMDLQGFGVSIYLIQVIFGAVDLPAKLVGFLVINSLGRRPAQMAALLLAGICILLNGVIPQDQSIVRTSLAVLGKGCLAASFNCIFLYTGELYPTMIRQTGMGMGSTMARVGSIVSPLVSMTAELYPSMPLFIYGAVPVAASAVTVLLPETLGQPLPDTVQDLESRWAPTQKEAGIYPRKGKQTRQQQEHQKYMVPLQASAQEKNGL
For the protein B5, the Michaelis constant (Km) amounted to 0.575 µM in data set [9] and 0.97 µM in data set [10].

B6: Solute carrier family 22 member 7 (Homo sapiens) (protein)
chain: MGFEELLEQVGGFGPFQLRNVALLALPRVLLPLHFLLPIFLAAVPAHRCALPGAPANFSHQDVWLEAHLPREPDGTLSSCLRFAYPQALPNTTLGEERQSRGELEDEPATVPCSQGWEYDHSEFSSTIATESQWDLVCEQKGLNRAASTFFFAGVLVGAVAFGYLSDRFGRRRLLLVAYVSTLVLGLASAASVSYVMFAITRTLTGSALAGFTIIVMPLELEWLDVEHRTVAGVLSSTFWTGGVMLLALVGYLIRDWRWLLLAVTLPCAPGILSLWWVPESARWLLTQGHVKEAHRYLLHCARLNGRPVCEDSFSQEAVSKVAAGERVVRRPSYLDLFRTPRLRHISLCCVVVWFGVNFSYYGLSLDVSGLGLNVYQTQLLFGAVELPSKLLVYLSVRYAGRRLTQAGTLLGTALAFGTRLLVSSDMKSWSTVLAVMGKAFSEAAFTTAYLFTSELYPTVLRQTGMGLTALVGRLGGSLAPLAALLDGVWLSLPKLTYGGIALLAAGTALLLPETRQAQLPETIQDVERKSAPTSLQEEEMPMKQVQN
Take B6: the Km in [11] is 0.425 µM; in [12] it was 0.713 µM.
